The target of data set [1] is TBP;TFIIA (single chain);TFIIB (Homo sapiens;Homo sapiens;Homo sapiens?) (UniProt P20226+P52655+P52657+Q00403). Briefly: smFRET. The following applies: Binding buffer and temperature not in the material (origami folding buffer: 10 mM Tris pH 7.6, 1 mM EDTA, 20 mM MgCl2, 5 mM NaCl); TFIIB 0.2 uM, TFIIA 2 uM ….
The target of data set [2] is TBP;TFIIA (single chain) (Homo sapiens;Homo sapiens) (UniProt P20226+P52655+P52657). Put plainly: smFRET. To be noted: Binding buffer and temperature not in the material (origami folding buffer: 10 mM Tris pH 7.6, 1 mM EDTA, 20 mM MgCl2, 5 mM NaCl); TFIIB 0.2 uM, TFIIA 2 uM ….
Data set [3] addresses TBP (Homo sapiens, UniProt P20226 169-339). Briefly: smFRET; TIRF dwell times; 0 pN; 20 nM TBP; E=0.39; Binding buffer and temperature not in the material (origami folding buffer: 10 mM Tris pH 7.6, 1 mM EDTA, 20 mM MgCl2, 5 mM NaCl); TFIIB 0.2 uM, TFIIA 2 uM, other proteins 20 nM. The following applies: protein: recombinant; tags: N-terminal His; label: ATTO 532 and ATTO 647N on S17 strand (positions by colour only); ds region (U6_comp) within ssDNA spring.

Values joined by “and” are separate entries in the source; they are usually repeats but may differ in a detail not shown here. Equal entries are not always repeated.

Sequence of TBP;TFIIA (single chain);TFIIB (Homo sapiens;Homo sapiens;Homo sapiens?) (P20226 whole entry, chain 1 of 4): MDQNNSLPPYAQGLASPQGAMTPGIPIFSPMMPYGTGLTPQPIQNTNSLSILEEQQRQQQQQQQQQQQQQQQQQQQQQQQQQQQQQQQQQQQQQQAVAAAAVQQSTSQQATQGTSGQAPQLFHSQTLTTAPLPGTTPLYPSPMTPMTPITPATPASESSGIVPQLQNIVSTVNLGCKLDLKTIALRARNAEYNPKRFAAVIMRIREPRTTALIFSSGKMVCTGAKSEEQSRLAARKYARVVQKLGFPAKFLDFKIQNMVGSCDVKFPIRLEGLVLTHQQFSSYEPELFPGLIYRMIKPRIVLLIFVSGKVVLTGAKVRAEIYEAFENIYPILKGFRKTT
Sequence of TBP;TFIIA (single chain);TFIIB (Homo sapiens;Homo sapiens;Homo sapiens?) (P52655 whole entry, chain 2 of 4): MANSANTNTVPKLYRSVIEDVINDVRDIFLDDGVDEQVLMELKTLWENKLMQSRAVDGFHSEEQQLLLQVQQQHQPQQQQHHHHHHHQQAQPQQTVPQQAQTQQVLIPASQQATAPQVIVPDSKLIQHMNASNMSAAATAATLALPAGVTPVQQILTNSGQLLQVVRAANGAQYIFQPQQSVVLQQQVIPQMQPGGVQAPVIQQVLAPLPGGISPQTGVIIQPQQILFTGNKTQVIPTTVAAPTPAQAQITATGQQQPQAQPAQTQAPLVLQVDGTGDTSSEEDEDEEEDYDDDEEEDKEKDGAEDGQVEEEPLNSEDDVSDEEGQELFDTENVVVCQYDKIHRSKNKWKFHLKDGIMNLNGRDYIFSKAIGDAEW
Sequence of TBP;TFIIA (single chain);TFIIB (Homo sapiens;Homo sapiens;Homo sapiens?) (P52657 whole entry, chain 3 of 4): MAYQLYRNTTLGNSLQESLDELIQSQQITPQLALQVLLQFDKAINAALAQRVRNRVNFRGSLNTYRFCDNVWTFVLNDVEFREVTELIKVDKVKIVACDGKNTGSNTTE
Sequence of TBP;TFIIA (single chain);TFIIB (Homo sapiens;Homo sapiens;Homo sapiens?) (Q00403 whole entry, chain 4 of 4): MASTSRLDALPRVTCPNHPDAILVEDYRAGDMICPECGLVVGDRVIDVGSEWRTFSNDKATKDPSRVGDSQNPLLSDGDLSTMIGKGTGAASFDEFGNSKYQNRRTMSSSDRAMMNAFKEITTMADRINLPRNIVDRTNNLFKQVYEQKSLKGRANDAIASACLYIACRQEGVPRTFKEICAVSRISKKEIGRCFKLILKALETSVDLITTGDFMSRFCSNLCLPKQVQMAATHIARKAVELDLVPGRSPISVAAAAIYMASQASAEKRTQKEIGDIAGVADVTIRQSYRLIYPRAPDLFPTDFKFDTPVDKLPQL
Sequence of TBP (P20226 169-339): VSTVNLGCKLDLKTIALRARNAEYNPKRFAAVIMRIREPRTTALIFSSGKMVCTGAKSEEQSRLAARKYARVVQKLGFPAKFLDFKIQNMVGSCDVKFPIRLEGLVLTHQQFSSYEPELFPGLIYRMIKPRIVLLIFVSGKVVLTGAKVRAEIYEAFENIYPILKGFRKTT
Sequence of TBP;TFIIA (single chain) (Homo sapiens;Homo sapiens) (P20226 whole entry, chain 1 of 3): as the sequence (P20226 whole entry, chain 1 of 4) above
Sequence of TBP;TFIIA (single chain) (Homo sapiens;Homo sapiens) (P52655 whole entry, chain 2 of 3): as the sequence (P52655 whole entry, chain 2 of 4) above
Sequence of TBP;TFIIA (single chain) (Homo sapiens;Homo sapiens) (P52657 whole entry, chain 3 of 3): as the sequence (P52657 whole entry, chain 3 of 4) above

Take “AAGCTTTAGGGCGCCTATAAAAGGGGGTTCGGGCG (double strand) [AdMLP promoter in DNA origami force clamp]”: the binding signal (% high FRET (bent)) is 72 and 53 in data set [1]; 26 in data set [2].

B1: U6 snRNA promoter in DNA origami force clamp (dsDNA)
DNA 1: CGGACCAAGATGATTTGATTGAAGGGCTTAAAATAGGTGTTAGAGTAACCCTTGA
DNA 2: TCAAGGGTTACTCTAACACCTATTTTAAGCCCTTCAATCAAATCATCTTGGTCCG
Consider B1, for which the binding result in data set [3] is “binds”.

The values above are taken from PMC7275037, “DNA origami-based single-molecule force spectroscopy elucidates RNA Polymerase III pre-initiation complex stability”.
